US20260274966A1

Biological target: CD137 on activated CEMT cells (UniProt Q07011)
Experiment: Flow cytometry on PMA/ionomycin-activated CEMT cells, protein at 0.48 nM, detection anti-human Fc-FITC; lower panel 'Cell binding - CD137'

MFI: 1.07
Substance: CET (antibody)
